# In patent publication US20120122239A1:
# Key:
# [1] = target: glycosylated human proBNP (HyTest, Turku, Finland; Catalog No. 8GOB2) (human); experiment: sandwich CMIA, capture 15C4, 288.7 pM, against human NT-proBNP
# [2] = target: human pro B-type natriuretic peptide (HyTest, Turku, Finland; Catalog No. 8PRO8) (human); experiment: as above
# [3] = target: human NT-pro B-type natriuretic peptide (HyTest, Turku, Finland; Catalog No. 8NT1) (human); experiment: sandwich CMIA, capture 15C4, analyte 86.6 pM
# [4] = target: glycosylated human proBNP (HyTest, Turku, Finland; Catalog No. 8GOB2) (human); experiment: sandwich CMIA, capture 15C4, analyte 86.6 pM
# [5] = target: human pro B-type natriuretic peptide (HyTest, Turku, Finland; Catalog No. 8PRO8) (human); experiment: sandwich CMIA, capture 15C4, analyte 86.6 pM
# [6] = target: human NT-pro B-type natriuretic peptide (HyTest, Turku, Finland; Catalog No. 8NT1) (human); experiment: sandwich CMIA, capture 15C4, analyte 43.3 pM
# [7] = target: glycosylated human proBNP (HyTest, Turku, Finland; Catalog No. 8GOB2) (human); experiment: sandwich CMIA, capture 15C4, analyte 43.3 pM
# [8] = target: human pro B-type natriuretic peptide (HyTest, Turku, Finland; Catalog No. 8PRO8) (human); experiment: sandwich CMIA, capture 15C4, analyte 43.3 pM
# [9] = target: human NT-pro B-type natriuretic peptide (HyTest, Turku, Finland; Catalog No. 8NT1) (human); experiment: sandwich CMIA, capture 15F11, analyte 86.6 pM
# [10] = target: glycosylated human proBNP (HyTest, Turku, Finland; Catalog No. 8GOB2) (human); experiment: sandwich CMIA, capture 15F11, analyte 86.6 pM
# [11] = target: human pro B-type natriuretic peptide (HyTest, Turku, Finland; Catalog No. 8PRO8) (human); experiment: sandwich CMIA, capture 15F11, analyte 86.6 pM
# [12] = target: human NT-pro B-type natriuretic peptide (HyTest, Turku, Finland; Catalog No. 8NT1) (human); experiment: sandwich CMIA, capture 15F11, analyte 43.3 pM
# [13] = target: glycosylated human proBNP (HyTest, Turku, Finland; Catalog No. 8GOB2) (human); experiment: sandwich CMIA, capture 15F11, analyte 43.3 pM
# [14] = target: human pro B-type natriuretic peptide (HyTest, Turku, Finland; Catalog No. 8PRO8) (human); experiment: sandwich CMIA, capture 15F11, analyte 43.3 pM
# [15] = target: human NT-pro B-type natriuretic peptide (HyTest, Turku, Finland; Catalog No. 8NT1) (human); experiment: sandwich CMIA, capture 15C4, analyte 577.4 pM
# [16] = target: glycosylated human proBNP (HyTest, Turku, Finland; Catalog No. 8GOB2) (human); experiment: sandwich CMIA, capture 15C4, analyte 577.4 pM
# [17] = target: human pro B-type natriuretic peptide (HyTest, Turku, Finland; Catalog No. 8PRO8) (human); experiment: sandwich CMIA, capture 15C4, analyte 577.4 pM
# [18] = target: glycosylated human proBNP (HyTest, Turku, Finland; Catalog No. 8GOB2) (human); experiment: sandwich CMIA, capture 15C4, 86.6 pM, against human NT-proBNP
# [19] = target: human pro B-type natriuretic peptide (HyTest, Turku, Finland; Catalog No. 8PRO8) (human); experiment: as above
# [20] = target: human NT-pro B-type natriuretic peptide (HyTest, Turku, Finland; Catalog No. 8NT1) (human); experiment: sandwich CMIA, capture 15F11, analyte 288.7 pM
# [21] = target: glycosylated human proBNP (HyTest, Turku, Finland; Catalog No. 8GOB2) (human); experiment: sandwich CMIA, capture 15F11, analyte 288.7 pM
# [22] = target: human pro B-type natriuretic peptide (HyTest, Turku, Finland; Catalog No. 8PRO8) (human); experiment: sandwich CMIA, capture 15F11, analyte 288.7 pM
# [23] = target: glycosylated human proBNP (HyTest, Turku, Finland; Catalog No. 8GOB2) (human); experiment: sandwich CMIA, capture 15C4, 577.4 pM, against human NT-proBNP
# [24] = target: human pro B-type natriuretic peptide (HyTest, Turku, Finland; Catalog No. 8PRO8) (human); experiment: as above
# [25] = target: human NT-pro B-type natriuretic peptide (HyTest, Turku, Finland; Catalog No. 8NT1) (human); experiment: sandwich CMIA, capture 15F11, analyte 0.0 pM (blank)
# [26] = target: glycosylated human proBNP (HyTest, Turku, Finland; Catalog No. 8GOB2) (human); experiment: as above
# [27] = target: human pro B-type natriuretic peptide (HyTest, Turku, Finland; Catalog No. 8PRO8) (human); experiment: as above
# [28] = target: human NT-pro B-type natriuretic peptide (HyTest, Turku, Finland; Catalog No. 8NT1) (human); experiment: sandwich CMIA, capture 15F11, analyte 577.4 pM
# [29] = target: glycosylated human proBNP (HyTest, Turku, Finland; Catalog No. 8GOB2) (human); experiment: sandwich CMIA, capture 15F11, analyte 577.4 pM
# [30] = target: human pro B-type natriuretic peptide (HyTest, Turku, Finland; Catalog No. 8PRO8) (human); experiment: sandwich CMIA, capture 15F11, analyte 577.4 pM
# [31] = target: glycosylated human proBNP (HyTest, Turku, Finland; Catalog No. 8GOB2) (human); experiment: sandwich CMIA, capture 15C4, 43.3 pM, against human NT-proBNP
# [32] = target: human pro B-type natriuretic peptide (HyTest, Turku, Finland; Catalog No. 8PRO8) (human); experiment: as above
# [33] = target: human pro B-type natriuretic peptide (HyTest, Turku, Finland; Catalog No. 8PRO8) (human); experiment: sandwich CMIA, 15C4 (63-71) with 13G12 (13-20), against human NT-proBNP
# [34] = target: human NT-pro B-type natriuretic peptide (HyTest, Turku, Finland; Catalog No. 8NT1) (human); experiment: sandwich CMIA, capture 15C4, analyte 288.7 pM
# [35] = target: glycosylated human proBNP (HyTest, Turku, Finland; Catalog No. 8GOB2) (human); experiment: sandwich CMIA, capture 15C4, analyte 288.7 pM
# [36] = target: human pro B-type natriuretic peptide (HyTest, Turku, Finland; Catalog No. 8PRO8) (human); experiment: sandwich CMIA, capture 15C4, analyte 288.7 pM
# [37] = target: human NT-pro B-type natriuretic peptide (HyTest, Turku, Finland; Catalog No. 8NT1) (human); experiment: sandwich CMIA, capture 15C4, analyte 0.0 pM (blank)
# [38] = target: glycosylated human proBNP (HyTest, Turku, Finland; Catalog No. 8GOB2) (human); experiment: as above
# [39] = target: human pro B-type natriuretic peptide (HyTest, Turku, Finland; Catalog No. 8PRO8) (human); experiment: as above
# [40] = target: human pro B-type natriuretic peptide (HyTest, Turku, Finland; Catalog No. 8PRO8) (human); experiment: sandwich CMIA, 15C4 (63-71) with 18H5 (13-20), against human NT-proBNP
# Chain of human pro B-type natriuretic peptide (HyTest, Turku, Finland; Catalog No. 8PRO8) (human) (chain, as listed by the source): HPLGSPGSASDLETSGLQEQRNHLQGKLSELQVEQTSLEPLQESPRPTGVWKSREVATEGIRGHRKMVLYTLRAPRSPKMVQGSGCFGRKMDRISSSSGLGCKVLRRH
# Chain of human NT-pro B-type natriuretic peptide (HyTest, Turku, Finland; Catalog No. 8NT1) (human) (chain, as listed by the source): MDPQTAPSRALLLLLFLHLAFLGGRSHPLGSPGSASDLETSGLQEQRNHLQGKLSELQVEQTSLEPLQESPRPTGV
Substance,% Cross-reactivity [1] [%],Analyte rlus [3] [rlus],Analyte rlus [4] [rlus],Analyte rlus [5] [rlus],Analyte rlus [6] [rlus],Analyte rlus [7] [rlus],Analyte rlus [8] [rlus],Analyte rlus [9] [rlus],Analyte rlus [10] [rlus],Analyte rlus [11] [rlus],Analyte rlus [12] [rlus],Analyte rlus [13] [rlus],Analyte rlus [14] [rlus],Analyte rlus [15] [rlus],Analyte rlus [16] [rlus],Analyte rlus [17] [rlus],% Cross-reactivity [18] [%],% Cross-reactivity [19] [%],Analyte rlus [20] [rlus],Analyte rlus [21] [rlus],other results
"anti-human NT-proBNP/anti-human proBNP labeled monoclonal antibody 13G12 (HyTest, Turku, Finland)",0.1,25600,912,4080,10300,905,2220,761,767,802,777,798,800,309000,1240,37200,0.1,12.9,820,831,% Cross-reactivity [2]: 12.1%; Analyte rlus [22]: 920 rlus; % Cross-reactivity [23]: 0.1%; % Cross-reactivity [24]: 11.8%; Analyte rlus [25]: 841 rlus; Analyte rlus [26]: 841 rlus; Analyte rlus [27]: 841 rlus; Analyte rlus [28]: 805 rlus; Analyte rlus [29]: 778 rlus; Analyte rlus [30]: 1080 rlus; % Cross-reactivity [31]: 0.1%; % Cross-reactivity [32]: 14.1%; % Cross-reactivity [33]: 10%; Analyte rlus [34]: 131000 rlus; Analyte rlus [35]: 967 rlus; Analyte rlus [36]: 16700 rlus; Analyte rlus [37]: 892 rlus; Analyte rlus [38]: 892 rlus; Analyte rlus [39]: 892 rlus
"anti-human NT-proBNP/anti-human proBNP labeled monoclonal antibody 18H5 (HyTest, Turku, Finland)",0.3,39100,783,6590,18000,756,3380,636,737,664,621,618,628,337000,1580,46500,0.2,15.3,708,663,% Cross-reactivity [40]: 10%; Analyte rlus [22]: 949 rlus; % Cross-reactivity [23]: 0.3%; % Cross-reactivity [24]: 13.6%; Analyte rlus [25]: 626 rlus; Analyte rlus [26]: 626 rlus; Analyte rlus [27]: 626 rlus; Analyte rlus [28]: 664 rlus; Analyte rlus [29]: 754 rlus; Analyte rlus [30]: 1440 rlus; % Cross-reactivity [31]: 0.3%; % Cross-reactivity [32]: 15.5%; Analyte rlus [34]: 162000 rlus; Analyte rlus [35]: 1230 rlus; Analyte rlus [37]: 704 rlus; Analyte rlus [38]: 704 rlus; Analyte rlus [39]: 704 rlus
